This is an account of results in publication PMC3713010, “Sox2 Transcriptionally Regulates Pqbp1, an Intellectual Disability-Microcephaly Causative Gene, in Neural Stem Progenitor Cells”.

Holding throughout (assay): EMSA; 10% glycerol, 20 mM HEPES pH 7.8, 45 mM KCl, 10 mM NaCl, 1 mM EDTA, 1 mM DTT, 0.2 ug/uL BSA, 0.1% NP-40, 50 ng poly-dIdC; 20 ng each GST protein; room temperature 30 min (heterodimers 4 C); 6% PAGE 0.25x TBE
Common to all, as to settings: protein: recombinant; tags: GST (N-terminal, pGEX-6P-1); label: 32P-dCTP fill-in of the 5' (dG)5 overhangs of both strands (Methods; control probes are given with GGG)
A general note: A gel shift assay detects complexes by their altered migration in electrophoresis.

Data set [1] addresses Pax6 DNA-binding domain (BD-Pax6) (Mus musculus (B6), UniProt P63015 190-289). In outline: (§1)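 DNA binding of transcription factor DNA-binding domains to candidate cis-elements was read from band radioactivity in the expected shift region. The GST-tagged domains came from E. coli BL21 via glutathione-sepharose; probes were annealed oligonucleotides labelled with 32P-dCTP. Each assay used 20 ng protein, 40,000–50,000 cpm probe and 50 ng poly-dIdC for 30 min at room temperature, followed by 6% polyacrylamide electrophoresis in 0.25×TBE at 4°C.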

Data set [2] addresses T1, Brn2 DNA-binding domain (BD-Brn2) (Mus musculus (B6), UniProt P31360 336-435).
T1 sequence: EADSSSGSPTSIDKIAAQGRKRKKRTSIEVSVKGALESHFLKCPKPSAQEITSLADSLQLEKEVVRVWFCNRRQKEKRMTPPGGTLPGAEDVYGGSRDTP
In outline: as §1

In data set [3] the target is T2, Oct6 DNA-binding domain (BD-Oct6) (Mus musculus (B6), UniProt P21952 317-416).
T2 sequence: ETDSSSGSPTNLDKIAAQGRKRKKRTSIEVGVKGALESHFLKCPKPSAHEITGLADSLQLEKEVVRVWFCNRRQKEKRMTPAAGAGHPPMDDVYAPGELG
In outline: as §1

Sequence of Pax6 DNA-binding domain (BD-Pax6) (P63015 190-289): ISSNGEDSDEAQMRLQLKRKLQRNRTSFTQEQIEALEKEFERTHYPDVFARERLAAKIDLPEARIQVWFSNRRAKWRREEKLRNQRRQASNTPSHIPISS

B1: 3 (dsDNA)
DNA 1: GGGGGACCTATACTTTGTTTTTATTGCCTAGTAATCCCCC
DNA 2: GGGGGATTACTAGGCAATAAAAACAAAGTATAGGTCCCCC
Consider B1, for which the binding result in data set [1], in data set [2] and in data set [3] was “no binding” in each case.

B2: 11 (dsDNA)
DNA 1: GGGGGGTGGGGTACAAAAATGGCCCTTTGTGATCAACTCCCCC
DNA 2: GGGGGAGTTGATCACAAAGGGCCATTTTTGTACCCCACCCCCC
Take B2: the binding result in data set [1], in data set [2] and in data set [3] was “no binding” each time.

B3: 122 (dsDNA)
DNA 1: GGGGGGAAAAGGATTTGTACTTAAATAAGCACCTGGCCCCCC
DNA 2: GGGGGGCCAGGTGCTTATTTAAGTACAAATCCTTTTCCCCCC
Take B3: the binding result in data set [1] was “no binding”; in data set [2], “binds”; in data set [3] it was “binds”.

B4: 12 (dsDNA)
DNA 1: GGGGGAGTATGAGTTTGTATATGTTGATTAACCAAACACTCCCCC
DNA 2: GGGGGAGTGTTTGGTTAATCAACATATACAAACTCATACTCCCCC
In the case of B4, the binding result in data set [1] is “no binding”; in data set [2], “binds”; in data set [3], “no binding”.

B5: 123 (dsDNA)
DNA 1: GGGGGAGTGCTATTTTGTCGAGAAATTGTAGAAGACACCCCC
DNA 2: GGGGGTGTCTTCTACAATTTCTCGACAAAATAGCACTCCCCC
On to B5, for which the binding result in data set [1], in data set [2] and in data set [3] was “no binding” throughout.

B6: 127 (dsDNA)
DNA 1: GGGGGTTTTGTTTTTTGTTTAAAGCAATAACATATTCAGCCCCC
DNA 2: GGGGGCTGAATATGTTATTGCTTTAAACAAAAAACAAAACCCCC
Take B6: the binding result in data set [1], in data set [2] and in data set [3] was “binds” each time.

B7: 4a (dsDNA)
DNA 1: GGGGGGACTTAATTGTGAGTCTCTGTAAAATTAACAAACAAGTTACCCCCC
DNA 2: GGGGGGTAACTTGTTTGTTAATTTTACAGAGACTCACAATTAAGTCCCCCC
For the molecule B7, the binding result in data set [1] is on record as “no binding”; in data set [2], “binds”; in data set [3], “binds”.

B8: 118 (dsDNA)
DNA 1: GGGGGGACAAGGGTCAATTTGCTAGACAAAGATCTTCACCCCC
DNA 2: GGGGGTGAAGATCTTTGTCTAGCAAATTGACCCTTGTCCCCCC
Regarding B8, the binding result in data set [1], in data set [2] and in data set [3] was “no binding” throughout.

B9: 126 (dsDNA)
DNA 1: GGGGGAATGTTGTCATAATTGAAAAAGACAAAGCACTAATCCCCC
DNA 2: GGGGGATTAGTGCTTTGTCTTTTTCAATTATGACAACATTCCCCC
As to B9, the binding result in data set [1], in data set [2] and in data set [3] was “binds” throughout.

B10: 115 (dsDNA)
DNA 1: GGGGGCTGGCCAGACAATGACGATATTTTTTTCCTTCACCCCCC
DNA 2: GGGGGGTGAAGGAAAAAAATATCGTCATTGTCTGGCCAGCCCCC
Consider B10, for which the binding result in data set [1], in data set [2] and in data set [3] was “no binding” each time.

B11: 121 (dsDNA)
DNA 1: GGGGGGTGCTCAATTTGTGTTAGCTATTACTAGCAAGTCATTAACTCACCCCCC
DNA 2: GGGGGGTGAGTTAATGACTTGCTAGTAATAGCTAACACAAATTGAGCACCCCCC
With B11, the binding result in data set [1], in data set [2] and in data set [3] was “binds” in each case.

B12: 4b (dsDNA)
DNA 1: GGGGGAGTCTCTGTAAAATTAACAAACAAGTTACCCCCC
DNA 2: GGGGGGTAACTTGTTTGTTAATTTTACAGAGACTCCCCC
As to B12, the binding result in data set [1] was “no binding”; in data set [2] it was “binds”; in data set [3], “binds”.

B13: 116 (dsDNA)
DNA 1: GGGGGAAGGCCAGACTAATCTACAAAGTGAGTTCCCCCC
DNA 2: GGGGGGAACTCACTTTGTAGATTAGTCTGGCCTTCCCCC
Consider B13, for which the binding result in data set [1], in data set [2] and in data set [3] was “no binding” each time.

B14: 124 (dsDNA)
DNA 1: GGGGGCTTATGCTTCTATTCTACACAATTCCACAACCCCCC
DNA 2: GGGGGGTTGTGGAATTGTGTAGAATAGAAGCATAAGCCCCC
Turning to B14, the binding result in data set [1], in data set [2] and in data set [3] was “no binding” in each case.

B15: 120 (dsDNA)
DNA 1: GGGGGTCCACACTCTATAATCTCACATTGTTTGGCACCCCCCC
DNA 2: GGGGGGGTGCCAAACAATGTGAGATTATAGAGTGTGGACCCCC
B15: the values for the binding result in data set [1], in data set [2] and in data set [3] were “no binding”, “no binding” and “binds”, respectively.

B16: 4c (dsDNA)
DNA 1: GGGGGTAAAATTAACAAACAAGTTACATTATCTAATATACACCCCC
DNA 2: GGGGGTGTATATTAGATAATGTAACTTGTTTGTTAATTTTACCCCC
Regarding B16, the binding result in data set [1] is reported as “no binding”; in data set [2], “binds”; in data set [3] it was “binds”.

B17: 117 (dsDNA)
DNA 1: GGGGGGAAAAACAAAGATTTAGTATAAACCCCC
DNA 2: GGGGGTTTATACTAAATCTTTGTTTTTCCCCCC
As to B17, the binding result in data set [1], in data set [2] and in data set [3] was “no binding” each time.

B18: 125 (dsDNA)
DNA 1: GGGGGGGGATGCAATTGTCAGTCACCTTTCTTGAGCCTGTGGGACCCCC
DNA 2: GGGGGTCCCACAGGCTCAAGAAAGGTGACTGACAATTGCATCCCCCCCC
With B18, the binding result in data set [1] was “no binding”; in data set [2], “binds”; in data set [3], “binds”.

B19: 128 (dsDNA)
DNA 1: GGGGGAATATCAGTGTAATGATTAACAGACAATGGCAGAGGCCCCC
DNA 2: GGGGGCCTCTGCCATTGTCTGTTAATCATTACACTGATATTCCCCC
B19: the binding result in data set [1] was “binds”; in data set [2], “no binding”; in data set [3], “no binding”.

B20: 119 (dsDNA)
DNA 1: GGGGGCCGATCGCTTTGTTCTACATTTTATGTTCTATCCCCC
DNA 2: GGGGGATAGAACATAAAATGTAGAACAAAGCGATCGGCCCCC
For the molecule B20, the binding result in data set [1], in data set [2] and in data set [3] was “no binding” throughout.
